Results as given in EP0866075B1 (Arpida AG,, dated 1998).
No end group written: not given here.

Each binder was assayed against T1, enzyme I (phosphoenolpyruvate-protein phosphotransferase, EC 2.7.3.9) of the E. coli phosphotransferase system (E. coli, UniProt P08839 1-575) (assay: cell-based or functional assay).
In the case of RIHFIPRRGR [peptide 20 RIHFIPRRGR], the “inhibition IC50” value is reported as 280 µM and the “uncoupling Pi/peptide (x IC50/h)” value is reported as 39.6 Pi/peptide (x IC50/h). With RHWSIF [peptide 24 RHWSIF] the “inhibition IC50” value was 400 µM. For MSRHRN [peptide 29 MSRHRN], the “inhibition IC50” value was 760 µM and the “uncoupling Pi/peptide (x IC50/h)” value was 144 Pi/peptide (x IC50/h). For Ac-MRLLKTLCFVGLCG (cysteine pairing not given here) [peptide 32 AcMRLLKTLCFVGLCG], the “inhibition IC50” value was over 10000 µM. GLRFGKTRVHYLVLG [peptide 14 GLRFGKTRVHYLVLG] was tested, and the “inhibition IC50” value was 25 µM and the “uncoupling Pi/peptide (x IC50/h)” value was 3.2 Pi/peptide (x IC50/h). KMSRHRKPGA [peptide 16 KMSRHRKPGA] was tested, and the “inhibition IC50” value was 100 µM and the “uncoupling Pi/peptide (x IC50/h)” value was 22.2 Pi/peptide (x IC50/h). KISRHGRPTG [peptide 19 KISRHGRPTG] was tested, and the “inhibition IC50” value was 1060 µM and the “uncoupling Pi/peptide (x IC50/h)” value was 479 Pi/peptide (x IC50/h). RHRTLF [peptide 25 RHRTLF] was tested, and the “inhibition IC50” value was 410 µM. For RHITLF [peptide 28 RHITLF], the “inhibition IC50” value was 1380 µM. MRLLKTLCFGLCG [peptide 31 MRLLKTLCFGLCG] was tested, and the “inhibition IC50” value was 3500 µM. In the case of RLHYLF [peptide 21 RLHYLF], the “inhibition IC50” value is reported as 375 µM and the “uncoupling Pi/peptide (x IC50/h)” value is reported as 64.2 Pi/peptide (x IC50/h). With SGRKSTRVHHWLLVL (not fully specified (residue 11)) [peptide 15 SGRKSTRVHHWLLVL] the “inhibition IC50” value was 60 µM and the “uncoupling Pi/peptide (x IC50/h)” value was 6.6 Pi/peptide (x IC50/h). For RHYLLF [peptide 26 RHYLLF], the “inhibition IC50” value was 500 µM. DGARLHYLF [peptide 22 DGARLHYLF] was tested, and the “inhibition IC50” value was 1200 µM and the “uncoupling Pi/peptide (x IC50/h)” value was 132 Pi/peptide (x IC50/h). Ac-DGARLHYLF [peptide 23 AcDGARLHYLF] was tested, and the “inhibition IC50” value was 7600 µM and the “uncoupling Pi/peptide (x IC50/h)” value was 15.2 Pi/peptide (x IC50/h). In the case of RHITSL [peptide 27 RHITSL], the “inhibition IC50” value is reported as 650 µM. KISRHGKRGK [peptide 18 KISRHGKRGK] was tested, and the “inhibition IC50” value was 140 µM and the “uncoupling Pi/peptide (x IC50/h)” value was 1.9 Pi/peptide (x IC50/h).

Target: T1, enzyme I (phosphoenolpyruvate-protein …)
Test: cell-based or functional assay
Remark: another data set of the same source
In the case of KKFHLRK [peptide 1 KKFHLRK], the “inhibition IC50” value is reported as 150 µM and the “uncoupling P;Ipeptide/h” value is reported as 0.49 Pi/peptide/h. KKWHRRKK [peptide 7 KKWHRRKK] was tested, and the “inhibition IC50” value was 300 µM and the “uncoupling P;Ipeptide/h” value was 0.29 Pi/peptide/h. With KKWHKRKK [peptide 8 KKWHKRKK] the “inhibition IC50” value was 440 µM and the “uncoupling P;Ipeptide/h” value was 0.215 Pi/peptide/h. In the case of WHKR [peptide 12 WHKR], the “inhibition IC50” value is reported as 4900 µM. For KKWHLRKR [peptide 5 KKWHLRKR], the “inhibition IC50” value was 30 µM and the “uncoupling P;Ipeptide/h” value was 0.3 Pi/peptide/h. Ac-WHKR [peptide 13 Ac-WHKR] was tested, and the “inhibition IC50” value was 5800 µM. For KKFDLRK [peptide 3 KKFDLRK], the “inhibition IC50” value was 820 µM and the “uncoupling P;Ipeptide/h” value was 0.05 Pi/peptide/h. With KKFHIRKR [peptide 9 KKFHIRKR] the “inhibition IC50” value was 160 µM and the “uncoupling P;Ipeptide/h” value was 0.31 Pi/peptide/h. With KGWHKRKK [peptide 6 KGWHKRKK] the “inhibition IC50” value was 530 µM and the “uncoupling P;Ipeptide/h” value was 0.23 Pi/peptide/h.
